Measurements reported in patent publication US20230114801A1 (SYSTIMMUNE, published 2023).

T1: CD19 (UniProt P15391 20-291, limits assumed)
T1 sequence (looked up): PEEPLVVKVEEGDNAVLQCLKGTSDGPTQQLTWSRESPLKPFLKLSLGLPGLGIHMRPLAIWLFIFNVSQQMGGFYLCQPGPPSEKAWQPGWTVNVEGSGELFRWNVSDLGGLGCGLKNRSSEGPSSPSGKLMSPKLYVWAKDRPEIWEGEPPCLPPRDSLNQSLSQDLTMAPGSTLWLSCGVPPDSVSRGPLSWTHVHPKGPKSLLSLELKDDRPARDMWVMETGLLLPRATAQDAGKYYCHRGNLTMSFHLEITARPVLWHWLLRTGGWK

B1: SI-68P16 (other)
chain 1: DPVLTQSPSSLSASVGDRVTISCQSSQSVAKNNNLAWFQQKPGQAPKLLIYSASTLAAGVPSRFSGSGSGTDFTLTISSVQPEDFATYYCSARDSGNIQSFGGGTKVEIKGGGGSGGGGSGGGGSGGGGSQQLVESGGGLVKPGGSLRLSCAASGIDLSSNAIGWVRQAPGKGLEWVGVIFGSGNTYYASWAKGRFTISRSKNTVYLQMNSLRAEDTAVYYCARGGYSSDIWGQGTLVTVSSGGGGSGGGGSQVQLQQSGPGLVKPSETLSITCTVSGFSLTNYGVHWIRQAPGKGLEWLGVIWSGGNTDYNTPFTSRFTITKDNSKNQVYFKLRSVRADDTAIYYCARALTYYDYEFAYWGQGTLVTVSSASTKGPSVFPLAPSSKSTSGGTAALGCLVKDYFPEPVTVSWNSGALTSGVHTFPAVLQSSGLYSLSSVVTVPSSSLGTQTYICNVNHKPSNTKVDKRVEPKSCDKTHTCPPCPAPEAAGGPSVFLFPPKPKDTLMISRTPEVTCVVVDVSHEDPEVKFNWYVDGVEVHNAKTKPREEQYNSTYRVVSVLTVLHQDWLNGKEYKCAVSNKALPAPIEKTISKAKGQPREPQVYTLPPSRDELTKNQVSLSCAVKGFYPSDIAVEWESNGQPENNYKTTPPVLDSDGSFFLVSKLTVDKSRWQQGNVFSCSVMHEALHNHYTQKSLSLSPGGGGGSGGGGSDVVMTQSPSSVSASVGDRVTITCQASQNIRTYLSWYQQKPGKAPKLLIYAAANLASGVPSRFSGSGSGTDFTLTISDLEPGDAATYYCQSTYLGTDYVGGAFGGGTKLTVLGGGGSGGGGSGGGGSGGGGSEVQLVESGGGLVQPGGSLRLSCTASGFTISSYHMQWVRQAPGKGLEYIGTISSGGNVYYASSARGRFTISRPSSKNTVDLQMNSLRAEDTAVYYCARDSGYSDPMWGQGTLVTVSS
chain 2: ENVLTQSPASLSASPGERVTITCSASSSVSYMHWYQQKPGQAPKLWIYDTSKLASGVPSRFSGSGSGNDHTLTISSMEPEDFATYYCFQGSVYPFTFGQGTKVTVLGGGGSGGGGSGGGGSGGGGSQVTLKESGPGLVQPGQTLSLTCAFSGFSLSTSGMGVGWIRQPPGKGLEWLAHIWWDDDKRYNPALKSRLTISKDTSKNQVYLQMNSLDAEDTAVYYCARMELWSYYFDYWGQGTLVTVSSGGGGSGGGGSEIVLTQSPSTLSVSPGERATFSCRASQSIGTNIHWYQQKPGKPPRLLIKYASESISGIPDRFSGSGSGTEFTLTISSVQSEDFAVYYCQQNNNWPTTFGPGTKLTVLRTVAAPSVFIFPPSDEQLKSGTASVVCLLNNFYPREAKVQWKVDNALQSGNSQESVTEQDSKDSTYSLSSTLTLSKADYEKHKVYACEVTHQGLSSPVTKSFNRGECGGDKTHTCPPCPAPEAAGGPSVFLFPPKPKDTLMISRTPEVTCVVVDVSHEDPEVKFNWYVDGVEVHNAKTKPREEQYNSTYRVVSVLTVLHQDWLNGKEYKCAVSNKALPAPIEKTISKAKGQPREPQVYTLPPSRDELTKNQVSLWCLVKGFYPSDIAVEWESNGQPENNYKTTPPVLDSDGSFFLYSKLTVDKSRWQQGNVFSCSVMHEALHNRFTQKSLSLSPGGGGGSGGGGSDIQMTQSPSTLSASVGDRVTITCQASQSISSHLNWYQQKPGKAPKLLIYKASTLASGVPSRFSGSGSGTEFTLTISSLQPDDFATYYCQQGYSWGNVDNVFGGGTKVTVLGGGGSGGGGSGGGGSGGGGSEVQLLESGGGLVQPGGSLSLSCAASGFSFSSGYDMCWVRQAPGKGLEWIACIAAGSAGITYDANWAKGRFTISRDNSKNTLYLQMNSLRAEDTAVYYCARSAFSFDYAMDLWGQGTLVTVSS
notes: penta-miniGNC; D1 αCD3***** (humanized framework 4), D2 αCD19, D3 αEGFR (Fab), D4 α4-1BB, D5 αPD-L1
B2: SI-75X13 (bispecific antibody, human IgG1, kappa, L234A L235A)
chain 1: QVQLQESGGRLVQPGEPLSLTCKTSGIDLSSNAIGWVRQAPGKGLEWIGVIFGSGNTYYASWAKGRFTISRSTSTVYLKMNSLRSEDTAIYYCARGGYSSDIWGQGTLVTVSSASTKGPSVFPLAPSSKSTSGGTAALGCLVKDYFPEPVTVSWNSGALTSGVHTFPAVLQSSGLYSLSSVVTVPSSSLGTQTYICNVNHKPSNTKVDKRVEPKSCDKTHTCPPCPAPEAAGGPSVFLFPPKPKDTLMISRTPEVTCVVVDVSHEDPEVKFNWYVDGVEVHNAKTKPREEQYNSTYRVVSVLTVLHQDWLNGKEYKCAVSNKALPAPIEKTISKAKGQPREPQVYTLPPSRDELTKNQVSLSCAVKGFYPSDIAVEWESNGQPENNYKTTPPVLDSDGSFFLVSKLTVDKSRWQQGNVFSCSVMHEALHNHYTQKSLSLSPGGGGGSGGGGSEVQLQESGGGLVQAGDSLSLSCLVSGRSFNSYTMGWFRQAPGKEREFVAAILWSGPTTYYADSVKGRFTISRDNAKNTVYLQMNSLKPEDTAVYYCAAALGVLVLAPGNVYSYWGQGTQVTVSS
chain 2: DPQLTQSPSSLSATVGQRVTINCQSSQSVAKNNNLAWFQQKPGKPPKLLIYSASTLAAGVPSRFSGSGSGTQFTLTITRVQSEDFATYYCSARDSGNIQSFGGGTRVEIKRTVAAPSVFIFPPSDEQLKSGTASVVCLLNNFYPREAKVQWKVDNALQSGNSQESVTEQDSKDSTYSLSSTLTLSKADYEKHKVYACEVTHQGLSSPVTKSFNRGECGGDKTHTCPPCPAPEAAGGPSVFLFPPKPKDTLMISRTPEVTCVVVDVSHEDPEVKFNWYVDGVEVHNAKTKPREEQYNSTYRVVSVLTVLHQDWLNGKEYKCAVSNKALPAPIEKTISKAKGQPREPQVYTLPPSRDELTKNQVSLWCLVKGFYPSDIAVEWESNGQPENNYKTTPPVLDSDGSFFLYSKLTVDKSRWQQGNVFSCSVMHEALHNRFTQKSLSLSPG
notes: bi-miniGNC; D3 αCD3* (Fab), D4 αEGFR VHH
B3: SI-75X11 (bispecific antibody, human IgG1, kappa, L234A L235A)
chain 1: EVQLQESGGGLVQAGDSLSLSCLVSGRSFNSYTMGWFRQAPGKEREFVAAILWSGPTTYYADSVKGRFTISRDNAKNTVYLQMNSLKPEDTAVYYCAAALGVLVLAPGNVYSYWGQGTQVTVSSGGGGSGGGGSQVQLQESGGRLVQPGEPLSLTCKTSGIDLSSNAIGWVRQAPGKGLEWIGVIFGSGNTYYASWAKGRFTISRSTSTVYLKMNSLRSEDTAIYYCARGGYSSDIWGQGTLVTVSSASTKGPSVFPLAPSSKSTSGGTAALGCLVKDYFPEPVTVSWNSGALTSGVHTFPAVLQSSGLYSLSSVVTVPSSSLGTQTYICNVNHKPSNTKVDKRVEPKSCDKTHTCPPCPAPEAAGGPSVFLFPPKPKDTLMISRTPEVTCVVVDVSHEDPEVKFNWYVDGVEVHNAKTKPREEQYNSTYRVVSVLTVLHQDWLNGKEYKCAVSNKALPAPIEKTISKAKGQPREPQVYTLPPSRDELTKNQVSLSCAVKGFYPSDIAVEWESNGQPENNYKTTPPVLDSDGSFFLVSKLTVDKSRWQQGNVFSCSVMHEALHNHYTQKSLSLSPG
chain 2: B2 chain 2
notes: bi-miniGNC; D1 αEGFR VHH, D3 αCD3* (Fab)

Assays:
human 4-1BB = biological target: T2, human 4-1BB (human, UniProt Q07011 24-186, limits assumed); assay: BLI (Octet), binder on AHC sensor; antigen conditions not stated
T2 construct: Soluble antigen in Octet; construct not described

human PD-L1 = biological target: T3, human PD-L1 (human, UniProt Q9NZQ7 19-238); assay: as above
T3 construct: Soluble antigen in Octet; bought; also called human PD-L1 (Acro PD1-H5229)

CD19 = biological target: T1, CD19; assay: as above
human CD3 = biological target: T4, human CD3 (human, UniProt P07766 23-126; P04234 22-105); assay: BLI (Octet), binder on AHC sensor, 100 nM human CD3, 1:1 fit
T4 construct: also called His-tagged human CD3; human CD3 (Acro CDD-H52W1)

human EGFR = biological target: T5, human EGFR (human, UniProt P00533 25-645, limits assumed); assay: BLI (Octet), binder on AHC sensor, 200 nM human EGFR, 1:1 fit
T5 construct: Soluble antigen in Octet; construct not described

Row | Binder | Kd (human 4-1BB) [nM] | Kd (human PD-L1) [nM] | Kd (CD19) [nM] | Kd (human CD3) [nM] | Kd (human EGFR) [nM]
1 | B1 | 23.3 | 0.5 | 2.55 |  | 
2 | B2 |  |  |  | 56 | 34
3 | B3 |  |  |  | 65.7 | 21.6
